Measurements as given in publication PMC8301893, “Identification of HSP47 Binding Site on Native Collagen and Its Implications for the Development of HSP47 Inhibitors” (Biomolecules, 2021).

How the values were obtained:
[1] = biological target: Integrin peptide 1 (GFOGER flanked by [GPP]5 at both ends); assay: ELISA; solid-phase binding assay (SPBA): peptides coated at 10 µg/mL overnight at 4 °C on Immulon 2HB 96-well plates, blocked with TBS containing 5% BSA; 1 µg/mL recombinant HSP47 for 1 h at room temperature; HRP-conjugated anti-His antibody, TMB, A450; means of three independent experiments
[2] = biological target: Collagen from calf skin (Sigma-Aldrich, Cat No: C9791) (calf) (UniProt P02453)
Sequence of UniProt P02453 (P02453 162-1217, chain 1 of 2): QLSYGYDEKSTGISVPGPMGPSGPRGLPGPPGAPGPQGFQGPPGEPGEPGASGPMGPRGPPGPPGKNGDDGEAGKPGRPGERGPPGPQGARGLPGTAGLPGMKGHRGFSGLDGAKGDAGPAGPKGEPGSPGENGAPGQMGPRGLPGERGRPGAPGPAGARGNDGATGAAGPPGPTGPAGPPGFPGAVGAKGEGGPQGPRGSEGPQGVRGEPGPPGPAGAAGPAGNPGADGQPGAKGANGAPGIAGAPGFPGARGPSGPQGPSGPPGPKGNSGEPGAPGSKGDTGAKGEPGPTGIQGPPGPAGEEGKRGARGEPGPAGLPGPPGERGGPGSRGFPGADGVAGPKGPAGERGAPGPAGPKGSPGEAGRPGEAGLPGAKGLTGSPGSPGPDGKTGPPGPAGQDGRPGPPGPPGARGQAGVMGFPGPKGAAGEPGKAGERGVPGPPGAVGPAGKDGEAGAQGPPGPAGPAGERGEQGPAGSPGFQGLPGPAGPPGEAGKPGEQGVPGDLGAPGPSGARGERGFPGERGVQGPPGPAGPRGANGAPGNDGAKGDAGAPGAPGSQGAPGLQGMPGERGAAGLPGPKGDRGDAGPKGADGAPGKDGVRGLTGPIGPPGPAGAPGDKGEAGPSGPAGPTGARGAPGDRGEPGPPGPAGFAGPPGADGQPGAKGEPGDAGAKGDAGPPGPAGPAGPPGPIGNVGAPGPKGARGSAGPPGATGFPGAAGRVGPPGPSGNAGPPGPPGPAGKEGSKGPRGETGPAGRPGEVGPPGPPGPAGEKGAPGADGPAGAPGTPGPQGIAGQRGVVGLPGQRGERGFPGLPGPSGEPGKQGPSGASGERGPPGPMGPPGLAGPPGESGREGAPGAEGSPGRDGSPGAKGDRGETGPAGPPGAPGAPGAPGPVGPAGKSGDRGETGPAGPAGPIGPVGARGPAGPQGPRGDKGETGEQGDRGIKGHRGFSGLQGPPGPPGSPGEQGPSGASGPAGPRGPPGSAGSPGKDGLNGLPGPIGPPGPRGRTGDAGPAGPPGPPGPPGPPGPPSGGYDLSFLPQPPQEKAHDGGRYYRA
Sequence of UniProt P02453 (P02465 80-1117, chain 2 of 2, further chain): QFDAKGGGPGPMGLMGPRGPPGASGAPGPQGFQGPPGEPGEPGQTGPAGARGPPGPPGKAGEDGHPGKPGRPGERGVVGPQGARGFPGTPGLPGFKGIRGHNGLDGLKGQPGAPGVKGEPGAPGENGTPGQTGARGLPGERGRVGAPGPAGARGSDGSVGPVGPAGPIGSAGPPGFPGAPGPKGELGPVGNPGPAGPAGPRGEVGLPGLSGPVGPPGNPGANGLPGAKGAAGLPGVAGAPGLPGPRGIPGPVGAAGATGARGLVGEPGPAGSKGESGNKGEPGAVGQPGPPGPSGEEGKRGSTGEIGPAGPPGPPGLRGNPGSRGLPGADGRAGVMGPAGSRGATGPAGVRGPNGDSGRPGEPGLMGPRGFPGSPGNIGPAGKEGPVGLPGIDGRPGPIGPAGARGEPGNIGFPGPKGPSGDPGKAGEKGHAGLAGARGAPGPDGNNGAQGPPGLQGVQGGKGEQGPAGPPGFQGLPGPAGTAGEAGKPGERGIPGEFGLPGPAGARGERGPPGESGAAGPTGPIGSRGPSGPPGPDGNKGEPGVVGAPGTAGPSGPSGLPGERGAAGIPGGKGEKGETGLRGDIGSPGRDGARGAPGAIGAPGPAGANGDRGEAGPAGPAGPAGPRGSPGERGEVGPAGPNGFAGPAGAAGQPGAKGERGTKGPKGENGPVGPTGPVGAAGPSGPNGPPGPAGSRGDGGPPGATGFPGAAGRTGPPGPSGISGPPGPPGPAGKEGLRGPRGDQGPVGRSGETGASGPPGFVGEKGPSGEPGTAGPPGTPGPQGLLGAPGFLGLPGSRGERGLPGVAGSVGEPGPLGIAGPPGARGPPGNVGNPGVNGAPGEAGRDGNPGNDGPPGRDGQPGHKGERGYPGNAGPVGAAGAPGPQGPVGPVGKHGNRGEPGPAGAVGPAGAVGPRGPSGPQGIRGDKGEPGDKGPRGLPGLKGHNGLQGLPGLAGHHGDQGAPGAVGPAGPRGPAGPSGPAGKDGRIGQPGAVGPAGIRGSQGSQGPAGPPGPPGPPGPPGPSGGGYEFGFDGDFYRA

B1: human HSP47 (heat shock protein 47), amino acids 19-418, C-terminal His-tag (natural protein)
chain: AEVKKPAAAAAPGTAEKLSPKAATLAERSAGLAFSLYQAMAKDQAVENILVSPVVVASSLGLVSLGGKATTASQAKAVLSAEQLRDEEVHAGLGELLRSLSNSTARNVTWKLGSRLYGPSSVSFADDFVRSSKQHYNCEHSKINFRDKRSALQSINEWAAQTTDGKLPEVTKDVERTDGALLVNAMFFKPHWDEKFHHKMVDNRGFMVTRSYTVGVMMMHRTGLYNYYDDEKEKLQIVEMPLAHKLSSLIILMPHHVEPLERLEKLLTKEQLKIWMGKMQKKAVAISLPKGVVEVTHDLQKHLAGLGLTEAIDKNKADLSRMSGKKDLYLASVFHATAFELDTDGNPFDQDIYGREELRSPKLFYADHPFIFLVRDTQSGSLLFIGRLVRPKGDKMRDEL
Question: For B1, which Mean A450 [1] is on record?
Answer: The Mean A450 was greater than 2 A450.

Question: And the IC50 of the small molecule Com II against HSP47 (2.6 μM) in the turbidity assay of collagen fibril formation [2]?
Answer: The IC50 of the small molecule Com II against HSP47 (2.6 μM) in the turbidity assay of collagen fibril formation was 50 to 100 µM.

Question: And the IC50 of the small molecule Hs1 against HSP47 (2.6 μM) in the turbidity assay of collagen fibril formation [2]?
Answer: Its IC50 of the small molecule Hs1 against HSP47 (2.6 μM) in the turbidity assay of collagen fibril formation is 97 µM.

Question: What about the IC50 of the small molecule Hs55 against HSP47 (2.6 μM) in the turbidity assay of collagen fibril formation [2] of the same binder?
Answer: The IC50 of the small molecule Hs55 against HSP47 (2.6 μM) in the turbidity assay of collagen fibril formation was 55 µM.
